As usually defined, the Kd is a measure of binding affinity in units of concentration. In general, IC50 refers to the concentration that inhibits the measured activity by half. Lower therefore signals higher potency.

Assay [1] concerns the target His-tagged V158 FcγRIIIa (human) (UniProt P08637). Nature of the assay: SPR, receptor immobilized, antibody flowed.
In assay [2] the target is FcγRIIIa on human PBMC effector cells (heterozygous V158/F158 or allotype not stated) (human) (UniProt P08637). The assay can be described thus: cell-based or functional assay.
Chain of FcγRIIIa on human PBMC effector cells (heterozygous V158/F158 or allotype not stated) (human) (P08637 17-254): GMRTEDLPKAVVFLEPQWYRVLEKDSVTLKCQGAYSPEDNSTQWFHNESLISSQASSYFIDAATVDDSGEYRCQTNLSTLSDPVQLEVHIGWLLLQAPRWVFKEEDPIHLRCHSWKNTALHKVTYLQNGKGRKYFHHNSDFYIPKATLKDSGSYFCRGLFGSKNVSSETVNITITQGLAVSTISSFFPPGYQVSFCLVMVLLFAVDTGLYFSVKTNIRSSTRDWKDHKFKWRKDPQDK
Assay [3] concerns the target extracellular region of human F158 FcγRIIIa, GST-tagged (human) (UniProt P08637). Nature of the assay: AlphaScreen competition. (In general: In Alpha technology, singlet oxygen from a donor bead excites a nearby acceptor bead.)
For assay [4], the target named is extracellular region of human V158 FcγRIIIa fused with glutathione S-Transferase (GST) (human) (UniProt P08637). The assay can be described thus: AlphaScreen competition.
Chain of extracellular region of human V158 FcγRIIIa fused with glutathione S-Transferase (GST) (human) (P08637 17-208 F176V): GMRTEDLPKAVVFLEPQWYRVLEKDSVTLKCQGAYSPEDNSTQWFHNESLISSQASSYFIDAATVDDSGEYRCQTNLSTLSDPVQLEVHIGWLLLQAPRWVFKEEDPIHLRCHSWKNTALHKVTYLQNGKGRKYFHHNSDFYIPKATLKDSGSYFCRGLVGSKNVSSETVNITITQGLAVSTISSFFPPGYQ
Assay [5] has as its target extracellular region of human F158 FcγRIIIa, GST-tagged (human) (UniProt P08637). Nature of the assay: SPR.
For assay [6], the target named is His-tagged V158 FcγRIIIa (human) (UniProt P08637). Nature of the assay: SPR. (SPR reads the build-up and loss of mass on a sensor chip optically.)
Chain of His-tagged V158 FcγRIIIa (human) (P08637 17-208 F176V): as above

Chain of extracellular region of human F158 FcγRIIIa, GST-tagged (human) (P08637 17-208): as the sequence (P08637 17-208 F176V) above, with V160F counted along it

Regarding “alemtuzumab Fc variant 3 V264I (antibody)”, in assay [1], the Kd is 64 nM.
As to “alemtuzumab Fc variant 22 I332E (antibody)”, the Kd in assay [1] came out at 31 nM.
Turning to “alemtuzumab Fc variant 30 V264I/I332E (antibody)”, in assay [2], the ADCC EC50, DoHH-2 targets, human PBMCs came out at 4 ng/mL; the ADCC Fold Improvement Over WT amounted to 2.5 fold; the ADCC log(EC50), DoHH-2 targets, human PBMCs is 0.6 log(ng/ml). In assay [3], this substance had a Fold (IC50, over WT) of 15.6 fold and an IC50 of 1.1 nM. In assay [4], this substance returned a FcγRIIIa Fold of 12.5 fold; a Fold (IC50, over WT) of 12.8 fold; an IC50 of 0.5 nM. Moreover, the Kd in assay [1] worked out at 17 nM. In addition, in assay [5], the Fold (Kd, over WT) came out at 14 fold and the Kd was determined as 52 nM. Also, in assay [6], the Fold (Kd, over WT) was found to be 4 fold.
In assay [1], “alemtuzumab Fc variant 35 S298A (antibody)” came in with a Kd of 52 nM.
On the same count and under the same terms, to “alemtuzumab Fc variant 37 S298A/E333A/K334A (antibody)” belongs 39 nM.
Turning to “alemtuzumab Fc variant 90 S239D/I332E (antibody)”, in assay [2], the ADCC EC50, DoHH-2 targets, human PBMCs was determined as 3 ng/mL; the ADCC Fold Improvement Over WT amounted to 3.3 fold; the ADCC log(EC50), DoHH-2 targets, human PBMCs was 0.49 log(ng/ml). In addition, the FcγRIIIa Fold in assay [4] was 56.1 fold.
Consider “trastuzumab Fc variant 219 S239D/I332E/A330I (antibody)”, for which, in assay [4], the FcγRIIIa Fold is 59.1 fold.
“trastuzumab Fc variant 221 P230A (antibody)” returned a FcγRIIIa Fold in assay [4] of 1.09 fold.
As for “trastuzumab Fc variant 222 E233D (antibody)”, the FcγRIIIa Fold in assay [4] worked out at 0.85 fold.
As for “trastuzumab Fc variant 223 P230A/E233D (antibody)”, in assay [4], the FcγRIIIa Fold amounted to 0.92 fold.
Still for that read-out and setting: to “trastuzumab Fc variant 224 P230A/E233D/I332E (antibody)” belongs 1.87 fold; to “trastuzumab Fc variant 238 E272Y (antibody)”, 8.7 fold; to “trastuzumab Fc variant 239 V273I (antibody)”, 0.79 fold.
For the substance “trastuzumab Fc variant 240 K274T (antibody)”, the FcγRIIIa Fold in assay [4] stood at 1.41 fold.
With “trastuzumab Fc variant 241 K274E (antibody)”, the FcγRIIIa Fold in assay [4] was determined as 6.11 fold.
On the same count and under the same terms, in the case of “trastuzumab Fc variant 242 K274R (antibody)” it was 1.41 fold; in that of “trastuzumab Fc variant 243 K274L (antibody)”, 1.09 fold.
The same measure, in the same setting: in the case of “trastuzumab Fc variant 244 K274Y (antibody)” it was 1.06 fold; in that of “trastuzumab Fc variant 245 F275W (antibody)”, 1.11 fold; in that of “trastuzumab Fc variant 246 N276S (antibody)”, 0.41 fold.
Still for that read-out and setting: in the case of “trastuzumab Fc variant 247 N276E (antibody)” it was 0.87 fold; in that of “trastuzumab Fc variant 248 N276R (antibody)”, 0.66 fold; in that of “trastuzumab Fc variant 250 N276Y (antibody)”, 0.56 fold.
Substance “trastuzumab Fc variant 251 Y278T (antibody)” returned a FcγRIIIa Fold in assay [4] of 1.87 fold.
On to “trastuzumab Fc variant 252 Y278E (antibody)”, for which the FcγRIIIa Fold in assay [4] was found to be 0.9 fold.
Take “trastuzumab Fc variant 254 Y278W (antibody)”: the FcγRIIIa Fold in assay [4] came to 0.41 fold.
Consider “trastuzumab Fc variant 255 E283R (antibody)”, for which, in assay [4], the FcγRIIIa Fold worked out at 0.67 fold.
In assay [4], “trastuzumab Fc variant 256 V302I (antibody)” displayed a FcγRIIIa Fold of 1.01 fold.
On to “trastuzumab Fc variant 257 E318R (antibody)”, for which the FcγRIIIa Fold in assay [4] is 1.06 fold.
For “trastuzumab Fc variant 263 V323I (antibody)”, in assay [4], the FcγRIIIa Fold worked out at 0.83 fold.
Same read-out and setting: to “trastuzumab Fc variant 266 S324R (antibody)” belongs 0.71 fold; to “trastuzumab Fc variant 267 S324I (antibody)”, 1.15 fold; to “trastuzumab Fc variant 268 S324V (antibody)”, 1.17 fold.
Regarding “trastuzumab Fc variant 270 S324Y (antibody)”, the FcγRIIIa Fold in assay [4] was 0.98 fold.
Substance “trastuzumab Fc variant 272 K326I (antibody)” showed a FcγRIIIa Fold in assay [4] of 1.43 fold.
As to “trastuzumab Fc variant 273 K326T (antibody)”, in assay [4], the FcγRIIIa Fold is 1.88 fold.
On the same count and under the same terms, to “trastuzumab Fc variant 281 E333T (antibody)” belongs 0.78 fold; to “trastuzumab Fc variant 282 E333H (antibody)”, 0.75 fold.
The substance “trastuzumab Fc variant 288 T335D (antibody)” came in with a FcγRIIIa Fold in assay [4] of 2.79 fold.
Still for that read-out and setting: in the case of “trastuzumab Fc variant 289 T335R (antibody)” it was 2.58 fold; in that of “trastuzumab Fc variant 290 T335Y (antibody)”, 1.56 fold; in that of “trastuzumab Fc variant 291 L234I/L235D (antibody)”, 0.07 fold.
Consider “trastuzumab Fc variant 292 V240I/V266I (antibody)”, for which the FcγRIIIa Fold in assay [4] turned out to be 1.72 fold.
“trastuzumab Fc variant 293 S239D/A330Y/I332E/L234I (antibody)”: the FcγRIIIa Fold in assay [4] worked out at 22.4 fold.
Take “trastuzumab Fc variant 294 S239D/A330Y/I332E/L235D (antibody)”: the FcγRIIIa Fold in assay [4] amounted to 7.04 fold.
In turn, “trastuzumab Fc variant 295 S239D/A330Y/I332E/V240I (antibody)” had a FcγRIIIa Fold in assay [4] of 28 fold.
The same measure, in the same setting: in the case of “trastuzumab Fc variant 296 S239D/A330Y/I332E/V264T (antibody)” it was 17.7 fold; in that of “trastuzumab Fc variant 298 S239D/A330Y/I332E/K326E (antibody)”, 64.1 fold.
